T1: NKp46 mutant Supp7 (human, UniProt O76036 22-304)
T1 construct: Expressed in transfected HEK293T cells; also called supplementary mutant Supp7
T1 chain: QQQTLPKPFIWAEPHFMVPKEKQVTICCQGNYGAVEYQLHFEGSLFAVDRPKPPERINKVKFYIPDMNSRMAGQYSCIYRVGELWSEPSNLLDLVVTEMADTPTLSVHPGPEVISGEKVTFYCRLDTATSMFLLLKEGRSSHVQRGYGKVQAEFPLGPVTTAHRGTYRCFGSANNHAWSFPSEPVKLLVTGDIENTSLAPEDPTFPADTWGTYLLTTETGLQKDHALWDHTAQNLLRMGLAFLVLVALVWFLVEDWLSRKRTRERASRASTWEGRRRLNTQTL

T2: NKp46 mutant 2 (human, UniProt O76036 22-304)
T2 construct: Expressed in transfected HEK293T cells
T2 chain: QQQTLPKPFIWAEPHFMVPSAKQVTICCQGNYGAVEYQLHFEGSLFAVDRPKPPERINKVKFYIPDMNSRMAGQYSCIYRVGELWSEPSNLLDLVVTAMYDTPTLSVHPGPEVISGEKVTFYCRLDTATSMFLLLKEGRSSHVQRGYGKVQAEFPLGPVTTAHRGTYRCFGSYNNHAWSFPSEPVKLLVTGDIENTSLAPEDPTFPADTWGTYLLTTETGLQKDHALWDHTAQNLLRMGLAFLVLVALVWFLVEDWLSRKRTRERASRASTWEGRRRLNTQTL

T3: NKp46 mutant Supp8 (human, UniProt O76036 22-304)
T3 construct: Expressed in transfected HEK293T cells; also called supplementary mutant Supp8
T3 chain: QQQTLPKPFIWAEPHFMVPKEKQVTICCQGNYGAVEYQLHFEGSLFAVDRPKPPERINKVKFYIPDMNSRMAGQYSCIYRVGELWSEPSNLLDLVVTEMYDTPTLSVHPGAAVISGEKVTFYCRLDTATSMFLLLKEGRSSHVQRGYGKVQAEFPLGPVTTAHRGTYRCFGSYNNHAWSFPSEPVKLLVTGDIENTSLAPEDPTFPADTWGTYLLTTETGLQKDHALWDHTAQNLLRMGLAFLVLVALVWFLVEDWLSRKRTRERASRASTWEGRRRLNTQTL

T4: NKp46 mutant 19 (human, UniProt O76036 22-304)
T4 construct: Expressed in transfected HEK293T cells
T4 chain: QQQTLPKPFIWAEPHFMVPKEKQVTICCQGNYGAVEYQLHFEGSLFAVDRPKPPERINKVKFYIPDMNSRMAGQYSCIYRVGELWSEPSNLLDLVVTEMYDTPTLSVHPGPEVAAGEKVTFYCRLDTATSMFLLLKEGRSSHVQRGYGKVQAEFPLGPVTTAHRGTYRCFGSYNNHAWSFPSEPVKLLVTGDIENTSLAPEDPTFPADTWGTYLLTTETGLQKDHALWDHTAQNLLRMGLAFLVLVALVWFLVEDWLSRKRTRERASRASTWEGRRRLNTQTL

T5: NKp46 mutant 6 (human, UniProt O76036 22-304)
T5 construct: Expressed in transfected HEK293T cells
T5 chain: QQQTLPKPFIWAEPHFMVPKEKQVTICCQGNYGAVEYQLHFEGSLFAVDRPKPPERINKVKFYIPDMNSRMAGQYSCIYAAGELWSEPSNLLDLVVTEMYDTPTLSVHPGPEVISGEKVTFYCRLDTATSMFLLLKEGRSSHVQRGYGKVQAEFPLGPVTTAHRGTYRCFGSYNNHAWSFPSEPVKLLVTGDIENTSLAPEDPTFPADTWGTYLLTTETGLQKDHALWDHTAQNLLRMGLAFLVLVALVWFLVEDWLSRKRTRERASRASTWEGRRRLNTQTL

B1: NKp46-2 (antibody, human IgG1, V domains shown)
VH: EVQLQESGPGLVKPSQSLSLTCTVTGYSITSDYAWNWIRQFPGNKLEWMGYITYSGSTSYNPSLESRISITRDTSTNQFFLQLNSVTTEDTATYYCARGGYYGSSWGVFAYWGQGTLVTVSA
VL: DIQMTQSPASLSASVGETVTITCRVSENIYSYLAWYQQKQGKSPQLLVYNAKTLAEGVPSRFSGSGSGTQFSLKINSLQPEDFGSYYCQHHYGTPWTFGGGTKLEIK
notes: also called parental human IgG1 chimeric antibody NKp46-2
B2: NKp46-3 IgG1 (antibody, V domains shown)
VH: EVQLQQSGPELVKPGASVKISCKTSGYTFTEYTMHWVKQSHGKSLEWIGGISPNIGGTSYNQKFKGKATLTVDKSSSTAYMELRSLTSEDSAVYYCARRGGSFDYWGQGTTLTVSS
VL: DIVMTQSPATLSVTPGDRVSLSCRASQSISDYLHWYQQKSHESPRLLIKYASQSISGIPSRFSGSGSGSDFTLSINSVEPEDVGVYYCQNGHSFPLTFGAGTKLELK
notes: Chimeric full-length human IgG1; also called NKp46-3 antibody as a full-length human IgG1
B3: CD19-F5-NKp46-3 (bispecific antibody, human IgG1, kappa)
chain 1: not shown
chain 2: not shown
chain 3: DIVMTQSPATLSVTPGDRVSLSCRASQSISDYLHWYQQKSHESPRLLIKYASQSISGIPSRFSGSGSGSDFTLSINSVEPEDVGVYYCQNGHSFPLTFGAGTKLELKASTKGPSVFPLAPSSKSTSGGTAALGCLVKDYFPEPVTVSWNSGALTSGVHTFPAVLQSSGLYSLSSVVTVPSSSLGTQTYICNVNHKPSNTKVDKRVEPKSCDKTH
notes: Heterotrimer with dimeric Fc: first (170), second (169) and third (171) chain
B4: CD19-F6-NKp46-3 (bispecific antibody, human IgG1, kappa)
chain 1: not shown
chain 2: not shown
chain 3: DIVMTQSPATLSVTPGDRVSLSCRASQSISDYLHWYQQKSHESPRLLIKYASQSISGIPSRFSGSGSGSDFTLSINSVEPEDVGVYYCQNGHSFPLTFGAGTKLELKASTKGPSVFPLAPSSKSTSGGTAALGCLVKDYFPEPVTVSWNSGALTSGVHTFPAVLQSSGLYSLSSVVTVPSSSLGTQTYICNVNHKPSNTKVDKRVEPKSCDKTH
notes: As F5 but with N297S: first (173), second (172) and third (174) chain
B5: CD19-F11-NKp46-3 (bispecific antibody)
chain 1: DIQLTQSPASLAVSLGQRATISCKASQSVDYDGDSYLNWYQQIPGQPPKLLIYDASNLVSGIPPRFSGSGSGTDFTLNIHPVEKVDAATYHCQQSTEDPWTFGGGTKLEIKGGGGSGGGGSGGGGSQVQLQQSGAELVRPGSSVKISCKASGYAFSSYWMNWVKQRPGQGLEWIGQIWPGDGDTNYNGKFKGKATLTADESSSTAYMQLSSLASEDSAVYFCARRETTTVGRYYYAMDYWGQGTTVTVSSGGGSSAPELLGGPSVFLFPPKPKDTLMISRTPEVTCVVVDVSHEDPEVKFNWYVDGVEVHNAKTKPREEQYSSTYRVVSVLTVLHQDWLNGKEYKCKVSNKALPAPIEKTISKAKGQPREPQVYTLPPSREEMTKNQVSLTCLVKGFYPSDIAVEWESNGQPENNYKTTPPVLDSDGSFFLYSKLTVDKSRWQQGNVFSCSVMHEALHNHYTQKSLSLSPGGGGGSGGGGSGGGGSGQPREPQVYTLPPSREEMTKNQVSLTCLVKGFYPSDIAVEWESNGQPENNYKTTPPVLDSDGSFFLYSKLTVDKSRWQQGNVFSCSVMHEALHNHYTQKSLSLSPGSTGSEVQLQQSGPELVKPGASVKISCKTSGYTFTEYTMHWVKQSHGKSLEWIGGISPNIGGTSYNQKFKGKATLTVDKSSSTAYMELRSLTSEDSAVYYCARRGGSFDYWGQGTTLTVSSRTVAAPSVFIFPPSDEQLKSGTASVVCLLNNFYPREAKVQWKVDNALQSGNSQESVTEQDSKDSTYSLSSTLTLSKADYEKHKVYACEVTHQGLSSPVTKSFNRGEC
chain 2: DIVMTQSPATLSVTPGDRVSLSCRASQSISDYLHWYQQKSHESPRLLIKYASQSISGIPSRFSGSGSGSDFTLSINSVEPEDVGVYYCQNGHSFPLTFGAGTKLELKASTKGPSVFPLAPSSKSTSGGTAALGCLVKDYFPEPVTVSWNSGALTSGVHTFPAVLQSSGLYSLSSVVTVPSSSLGTQTYICNVNHKPSNTKVDKRVEPKSCDKTH
notes: Heterodimer; also called CD19-F11A-NKp46-3

Experiments:
[1] = target: T6, human NKp46 expressed at the cell surface (human, UniProt O76036 22-304); test: flow cytometry on HEK293T cells transfected with wild-type NKp46, antibody titrated 0.001-1 ug/ml
T6 construct: Wild-type NKp46 on cells (transfected cell lines or NK cells); also called cell line expressing the human NKp46 construct; NKp46 cell line

[2] = target: T1, NKp46 mutant Supp7; test: flow cytometry on HEK293T cells transfected with NKp46 mutant Supp7 (Y121A, Y194A; printed 'Mutant S7'), antibody titrated 0.001-1 ug/ml
[3] = target: T2, NKp46 mutant 2; test: flow cytometry on HEK293T cells transfected with NKp46 mutant 2 (K41S, E42A, E119A), antibody titrated 0.001-1 ug/ml
Protocol: All the anti-NKp46 antibodies were tested for their binding to each mutant by flow cytometry. A first experiment was performed to determine antibodies that lose their binding to one or several mutants at one concentration (10 μg/ml).

[4] = target: T3, NKp46 mutant Supp8; test: flow cytometry on HEK293T cells transfected with NKp46 mutant Supp8 (P132A, E133A; printed 'Mutant S8'), antibody titrated 0.001-1 ug/ml
[5] = target: T4, NKp46 mutant 19; test: flow cytometry on HEK293T cells transfected with NKp46 mutant 19 (I135A, S136A), antibody titrated 0.001-1 ug/ml
[6] = target: T7, Human NKp46 recombinant proteins (human, UniProt O76036 22-258); test: SPR, antibody captured on Protein-A chip, human NKp46 injected, 1:1 kinetic model
T7 construct: also called recombinant human NKp46 proteins

[7] = target: T5, NKp46 mutant 6; test: flow cytometry on HEK293T cells transfected with NKp46 mutant 6 (R101A, V102A), antibody titrated 0.001-1 ug/ml
[8] = target: T7, Human NKp46 recombinant proteins; test: SPR, bispecific captured on Protein-A chip, human NKp46 injected, 1:1 kinetic model
Protocol: SPR measurements were performed on a Biacore T100 apparatus (Biacore GE Healthcare) at 25° C. In all Biacore experiments HBS-EP+(Biacore GE Healthcare) and NaOH 10 mM served as running buffer and regeneration buffer respectively. Sensorgrams were analyzed with Biacore T100 Evaluation software. Protein-A was purchase from (GE Healthcare). Human NKp46 recombinant proteins were cloned, produced and purified at Innate Pharma.
(§1) Protein-A proteins were immobilized covalently to carboxyl groups in the dextran layer on a Sensor Chip CM5. The chip surface was activated with EDC/NHS (N-ethyl-N′-(3-dimethylaminopropyl) carbodiimidehydrochloride and N-hydroxysuccinimide (Biacore GE Healthcare)). Protein-A was diluted to 10 μg/ml in coupling buffer (10 mM acetate, pH 5.6) and injected until the appropriate immobilization level was reached (i.e. 2000 RU). Deactivation of the remaining activated groups was performed using 100 mM ethanolamine pH 8 (Biacore GE Healthcare).
Monovalent affinity study was done following a regular Capture-Kinetic protocol recommended by the manufacturer (Biacore GE Healthcare kinetic wizard). Seven serial dilutions of human NKp46 recombinant proteins, ranging from 6.25 to 400 nM were sequentially injected over the captured Bi-Specific antibodies and allowed to dissociate for 10 min before regeneration. The entire sensorgram sets were fitted using the 1:1 kinetic binding model.

[9] = target: T8, human FcRn (Example 10) (human, UniProt P55899 24-297; P61769 21-119, limits assumed); test: SPR, FcRn immobilized on CM5, SCK/Two state reaction
T8 construct: Construct not described; Beta-2-microglobulin is not mentioned; also called recombinant FcRn proteins
T8 sequence (P55899 24-297 limits assumed, form in doubt, chain 1 of 2): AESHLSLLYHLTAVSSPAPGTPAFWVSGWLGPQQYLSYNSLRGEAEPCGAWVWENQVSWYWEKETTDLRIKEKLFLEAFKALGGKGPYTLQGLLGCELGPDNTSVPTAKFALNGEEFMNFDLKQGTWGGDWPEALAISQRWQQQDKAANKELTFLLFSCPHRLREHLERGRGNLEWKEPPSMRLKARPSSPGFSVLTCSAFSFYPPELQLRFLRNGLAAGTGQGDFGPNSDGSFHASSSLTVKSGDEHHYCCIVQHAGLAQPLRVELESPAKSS
T8 sequence (P61769 21-119 limits assumed, form in doubt, chain 2 of 2): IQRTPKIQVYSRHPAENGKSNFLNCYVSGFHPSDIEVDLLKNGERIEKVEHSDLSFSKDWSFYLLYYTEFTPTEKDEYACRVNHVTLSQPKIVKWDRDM
Protocol: SPR measurements were performed on a Biacore T100 apparatus (Biacore GE Healthcare) at 25° C. In all Biacore experiments Acetate Buffer (50 mM Acetate pH5.6, 150 mM NaCl, 0.1% surfactant p20) and HBS-EP+ (Biacore GE Healthcare) served as running buffer and regeneration buffer respectively. Sensorgrams were analyzed with Biacore T100 Evaluation software. Recombinant mouse FcRn was purchase from R&D Systems.
as §1, with “Recombinant FcRn” for “Protein-A”, “FcRn proteins were” for “Protein-A was”, “2500” for “2000”

[10] = target: T8, human FcRn (Example 10); test: SPR, FcRn immobilized on CM5, Steady State

Binder | binding result [2] | binding result [3] | Kd [8] [nM] | koff [8] [s⁻¹] | kon [8] [M⁻¹ s⁻¹] | Kd [9] [nM] | further results
B1 | binds | binds |  |  |  |  | binding result [1]: binds; binding result [4]: binds; binding result [5]: binds
B2 | binds | binds |  |  |  |  | Kd [6]: 20 nM; koff [6]: 0.00433 s⁻¹; kon [6]: 222000 M⁻¹ s⁻¹; binding result [7]: binds
B3 |  |  | 67 | 0.0051 | 75600 | 2.6 | 
B4 |  |  | 63 | 0.00503 | 79300 | 6 | 
B5 |  |  | 30 | 0.0104 | 339000 |  | Kd [10]: 596 nM

— patent publication US20240141042A1 (INNATE PHARMA, published 2024)
